The DeepSol protein solubility set

experiment: soluble on expression in E. coli; label from the status in PepcDB or PDB records

Row | Sequence | soluble on expression in E. coli
1 | MATVAFQTLGCKVNHYETEAIWQLFKGEGYEKVDFEQMADVYVINTCTVTNTGDKKSRQVIRRAIRKNPDAVICVTGCYAQTSPAEVMAIPGVDIVVGTQDRKKMLEYIEQYKKERQPINGVGNIMKSRVYEELDVPAFTDRTRASLKIQEGCNNFCTFCIIPWARGLMRSRDPKEVIKQAEQLVQAGYKEIVLTGIHTGGYGEDLKDYSLARLLEDLEQVNGLKRIRISSIEASQLTDEVIEVIDRSTKVVRHLHIPLQSGSDTVLKRMRRKYTMAFFAERLERLREALPGLAVTSDVIVGFPGETEAEFQETYDFIAKHKFSELHVFPYSKRTGTPAARMEDQVNEDVKNERVHRLIQLSDQLAKEYASQFEGEVLEMIPEERDKEEPNSGLYVGYTDNYLKVKIPATDEMIGKLVKVKITKAGYPYNEGEFVRVLDEEPQAVAHGLEHHHHHH | soluble
2 | GRFSDELVEACAEMVRQRWNPHPEPTWVCCVPSLRHLDLVPDFARRLAAKLGLPFIDAIEKVVDNPPQKMQQNRFHQCQNLDGAFVITPPLMPGPALLVDDIVDSAWTLTVLTALLRQAGCPTVYPLALASTSVK | not soluble
3 | MKFDVIIVGAGPGGMFAAYKLAGKLNTAIFEMGRDISKRKCPSDLSESYCTKCNPCNITSGVGGAGGLSDGKLNYVHPEYPSSFSVGGDFDFLDPNYLIEKMNEVDEIFLKHGAPDELYGDDLEKIEDFLKRANAAGIEFVPLRQRHVGSDELPKVVKSIEDKLKKEGVKIYTRKTVVDIDPERKVVRTEKGEEFGYDYLIIAVGRSGASWLEKWARDYNLEVAENSKAIDVGVRVEVPASIMDDITSAIYDPKLRVITKRHDDYMRTFCTCPRGWVIREDYGDFCLVNGHSKAKEKSSNTNFALLGHYEFTEPFDEPNEWGRDLARITTKLGGGNPIVQRLKDLRLGRRSTESRIKNNRLVQPTLKTAIPGDISLAYPGRAIDDILDALERLDKVIPGVADDSTLLYAPEVKFYSLKLKVDEWMKTNIPYIYAIGDGAGVSRGIVGAAVTGLIAAEGILRERGMELEHHHHHH | soluble
4 | MSLSFLKHVQDCNTHDLSNFVRFVIEGRRVGWVRKALAQRLKAHGRVFDVTRDAVLLSASLRTPQSRTRAVADVVDRLADEGVVPAPRGELYRVNQSWGEPTLMLLDRAVVPTFGVRAYGVHLNGYVGAGADLHLWIGRRSPDKSVAPGKLDNMVAGGQPADLSLRQNLIKECAEEADLPEALARQAIPVGAITYCMESPAGIKPDTLFLYDLALPEDFRPHNTDGEMADFMLWPAAKVVEAVRTTEAFKFNVNLTVIDFAIRHGLIDPDNEGHHHHHH | not soluble
5 | MEGLEAYDYHLPPEQIAQEGVEPRDMARLMVVYREGPFRVAHKRVRDLPEFLRPGDVLVFNESKVIPARLLARKPTGGKVEILLVRERSPGLWEALLGPARKAPPGTRLLLLSPKDLAPVPGLQAEVVAVEEDGVRLLRFQGDLVAHLEEVGEVPLPPYIKAKIPMERYQTVYARRPGSVAAPTAGLHFTPELLERLREMGVELRFLTLHVGPGTFRPVKGDPEKHEMHAEPYAIPEEVAEAVNRAKAEGRRVVAVGTTVVRALESAYREGVGVVAGEGETRLFIRPPYTFKVVDALFTNFHLPRSTLLMLVAAFLGRERTLEAYRLAVAEGYRFYSLGDAMLIL | soluble
6 | NLAHDTVFEVRNVTSRDRKKVRDISFSVCRGEILGFAGLVGSGRTELMNCLFGVDKRAGGEIRLNGKDISPRSPLDAVKKGMAYITESRRDNGFFPNFSIAQNIAISRSLKDGGYKGAMGLFHEVDEQRTAEAQRELLALKCHSVNQNITELSGGNQQKVLISKWLCCHPEVIIFDEPTRGIDVGAKAEIYKVMRQLADDGKVILMVSSELPEIITVCDRIAVFCEGRLTQILTNRDDMSEEEIMAWALPHE | not soluble
7 | AIAATSELSCEVSEENCERREAFWAEWKDLTLSTRPEEGCSLHEEDTQRHETYHQQGQCQVLVQRSPWLMMRMGILGRGLQEYQLPYQRVLPLPIFTPAKMGATKEEREDTPIQLQELLALETALGGQCVDRQEVAEITKQLPPVVPVSKPGALRRSLSRSMSQEAQRG | soluble
8 | AIADEVKECLRDFPKEARELYLNDAVPYLDEPLSPLQFYRDWIGPNKPCIIRNAFNDWPALSKWNPTYLREKVGSKVISVAVTPNGFADAVNGNRFVMPEERQMSFSSLLDIVEGKIKSSAVFYVQKQCSNLMEEIPELTGDVQTHIPWMSEALGKLPDAVNFWLGEESAVTSMHKDHYENLYCVISGQKEFILLPPTDRPFIPYELYQPATYRQKDDGTFEIVDEENSPKVPWIPLDPLKPDFERFPSYRHAKALHCTVKAGEMLYLPSLWFHHVRQSHGCIAVNFWYDMEYDIKYNYFQLVEALTNAVGSL | soluble
9 | MSSAATPPPMEHTSSEDSTTAPLQTPSSSSCLDVTVAVGTSVSYLKASPLVSSPTSLVVDITESSSTLLYDKIKALPCEPVVTEVDTSTLRKETLNQIDGLLGPSPEALELRQLLNSPHLASCVQALDVVVCEIRDPKNEASGSGDKEGNCVSSDPAPAYLNGGVLPLGAQRAGTSFEHFNQSAVHTSYDEEEEELYDCMSRLRLVQFQKDTQEPMGITLKVNEDGRCFVARIMHGGMIHRQATLHVGDEIREINGMSVANRSVESLQEMLRDARGQVTFKIIPSYRSAPPACEIFVRAQFDYEPSQDDLIPCPQAGIPFKTGDILQVISKDDHNWWQARFVSSFPSIGNSSNAQRSNQQQVAGLIPSPELQEWRTACLAMERSKNTCNTHCMWFNKKKKYYTTKYLQKHSALFDQLDLVTYEEVMRLSQYRRKTLVLLGAHGVGRRHIKNTLIHRHPNRFAYPIPHTTRPPRKDEVDGKHYYFVTNEQMMADIQNNEYLEYGTHEESMYGTKLETIRNIHKSGKIAILDVEPQALKVLRTAEYSPFVVFIAAPNLQGMQDPDGSLEKLLNESDVLRQAFGHLFDFIITNSDIDDTIAQLERLVEKLPAYPQWLPVTWVY | not soluble
10 | MAITNIKCVIFDCDGTLVDSERLCCQALVNVFNQHGAELTMEECVSHFKGGKLADILLDTKELMNINVPIDVLEPQYRTEVQKLFVRHLQPMDGAKRLIQFLDSHNIEYCVASNGPKDKIEHALELTGLLDAFKGKVFSAFEANSWKPEPDLIMYSAMSMGFLPSDCLYIDDTPKGVEAGLNAGIKTVQLFNGEAINRVDDDRVIRIQHLDELKEQLMGCSV | not soluble
11 | MKKFTLEEFLDLLKKYNVEEIEGVKIEGDLEIEFEGSSIDLSAIAPLYSMLSEFGNFLYHANMALGYLQRLSAALGIPTPFAAQPQLAPAAPAAPAEVPAVEELKIPAELVRAKFEPYKEEYPGKIEEVVLGATKADGGTREYTVTLGGERSLAFYTFDAPQPHLPAIAIDVFDRRPMLAKAVRMHYEDVLDNPAEWARKCVKKFGADLVTLHLISTDPLLDDTPASEAVKVLEDVLQAVKCPIIVGGSGNKEKDPEVLEKAAEVAEGERIMLASATLDMDWERIANAAKKYGHVVLSWTQMDINNQKTLNRYLLKRVEMPRDSIVMDPTTAALGYGLDYAFTNMERIRISGLKGDTDLNFPISSGTTNAWGAREAWMVDSPIEEDTPWGPRELRGPIWEIITGLTLSLAGVDLFMMMHPVAVAVLKEVFNTLGGKVSGGVADPGEWIFMEV | not soluble
12 | GTVQEIMIPAGKAGLVIGKGGETIKQLQERAGVKMILIQDGSQNTNVDKPLRIIGDPYKVQQACEMVMDILRERDQGGFGDRNEYGSRIGGGIDVPVPRHSVGVVIGRSGEMIKKIQNDAGVRIQFKQDDGTGPEKIAHIMGPPDRCEHAARIINDLLQSLRSG | soluble
13 | APVGPLGQVKLTVWYHSDEQKLISIIHSCRALRQNGRDLPDPYVSVLLLPDKNRSTKRKTPQKKRTLNPEFNERFEWDLPLDGTLRRKLDVSVKSNSSFMSRERELLGKVQLDLAEIDLSQGAAQWYDLMDDRDKGGS | soluble
14 | MLSATLLNRTVFHSLSPLHSLAHLASDMESSVNKAPSLIAAIVLGLGISACGYFVGDGVKHLKTNNRYVNVRGLSEKEVRADTAELTIAINFKGNVPGELFPKLEEAQKKIVAELNAQGINEKEIILGQWTSKRTDSFYLKDDPTMPRYNADGSVTIKTHNVAAVEKVVAKLNELQVATDGAIAESKVAYRFNGIGALRAEMIAAATKDARNAALQFATDSGSQVGSISDASQGVFQIFASGSDEDDPTAINKTVRVVTTVTYALQD | not soluble
15 | MSLKDRYILAFETSCDETSVAVLKNDDELLSNVIASQIESHKRFGGVVPEVASRHHVEVITACIEEALAEAGITEEDVTAVAVTYGPGLVGALLVGLSAAKAFAWAHGLPLIPVNHMAGHLMAAQSVEPLEFPLLALLVSGGHTELVYVSEAGDYKIVGETRDDAVGEAYDKVGRVMGLTYPAGREIDELAHQGQDIYDFPRAMIKEDNLEFSFSGLKSAFINLHHNAEQKGESLSTEDLCASFQAAVMDILMAKTKKALEKYPVKTLVVAGGVAANKGLRERLATEITDVNVIIPPLRLCGDNAGMIAYASVSEWNKENFANLDLNAKPSLAFDTMEEGHHHHHH | soluble
16 | MGSDKIHHHHHHMEEVINGILIREVETKNIMTKSSLPVGGYSVNPYVGCTHACKYCYASFMKRFTGHKEEWGTFLDVKHWPEIKNPKKYAGQRVVIGSVTDGYNPQEEQFGNTRKLLEQLIGSDADILICTKSDLVVRDIDLLKKLGRVTVSWSINTLDENFKNDMDSASSIERRISAMKQVYESGIRTVCFVSPVFPGITDFEAIFERVKDQCDLFWLENLNLRGGFKKTIMDYITGQYPDLVPLYDEIYNKHNRSYFEALEVKAEKMAKKYDCAFVDNEMPYGRVPQGHPVIVDYFYHEEIRGTENTGKRNR | not soluble
17 | ATALAGSNGVCIAYYITDGRNPTFKLKDIPDKVDMVILFGLKYWSLQDTTKLPGGTGMMGSFKSYKDLDTQIRSLQSRGIKVLQNIDDDVSWQSSKPGGFASAAAYGDAIKSIVIDKWKLDGISLDIEHSGAKPNPIPTFPGYAATGYNGWYSGSMAATPAFLNVISELTKYFGTTAPNNKQLQIASGIDVYAWNKIMENFRNNFNYIQLQSYGANVSRTQLMMNYATGTNKIPASKMVFGAYAEGGTNQANDVEVAKWTPTQGAKGGMMIYTYNSNVSYANAVRDAVKN | soluble
18 | GSKQVITEQIANDLVKEVVNSSVISIVKREFSEANYRKDFIDTMTRELYDAFLHERLYLIYMDSRAELKRNSTLKKKFFEKWQAS | soluble
19 | MSLNEQKAQQLLMFFREQAEKPLSVNELEEALNLEDAQEFKELVQVLNEMEEKGLLVRTRSNRYGVPEKMNLLRGVVQGHAKGFAFVIPEEEGHSDVYVSHVDLESAMNGDRVIVRLHPHSTGTRPEGKVIRILERGVSEVIGTYVDHQTYGLVVADDKRIPNDILIVNPEAQGLVDGHKVIVKITKYPEGRMSAEGEVISILGHKNDPGMDILSIIYKYGIPQAFPEEVLQQAQNIPDEIDAGEIKNRRDLRDEPLVTIDGADAKDLDDAVHVSRLPNGNFKLGVHIADVSYYVKEKSPIDLEAAERGTSVYLVDRVIPMIPHRLSNGICSLNPQVDRLTLSCEMEITRDGQVVNHEIFQSVIRTNERMTYHDVNKILVEKEEELRNRYELLVPMFEDMEELAAILRKKRFGRGAIDFDFKEAKVLVDEEGKPSDVVIRERGVAEKLIEEFMLAANETVAEHFHWLKLPFMYRIHEDPDSEKLGRFLEFITNFGYVVRGTANTVHPRALQKLLEEVRGEPEEQVISTVMLRSMQQAKYDPTSLGHFGLSTEFYTHFTSPIRRYPDLIVHRLIREYLIKGNVDEETQEKWRERLPEIARHCSEMERRAVDAERETDDVKKAQFMEDKIGETFTGIISGVTNFGIFVELENTIEGLVHVSYLTDDYYRYDEKHYAMIGERSGNVFRIGDEIEVRVINVNVEEASIDFEIVGMKPRKQRPDKSRPKVIEGGKRKKKENRGALALDGSKPKKKKKKKAFYENAPSAKRKKGKKRKREGHHHHHH | soluble
